How the values were obtained:
HeLa Kyoto [1] = assay: solubility in G1/S (NP-40 vs SDS abundance) (log2 ratio); higher = more soluble; details: cell cycle stage: G1/S
HeLa Kyoto [2] = assay: melting temperature (median over replicates), in situ; higher = more thermally stable
HeLa Kyoto [3] = assay: solubility change mitosis vs G1/S (difference of NP-40 vs SDS log2 ratios) (log2 ratio difference); higher = more soluble in mitosis
HeLa Kyoto [4] = assay: thermal stability score vs G1/S (z-score of summed log2 fold changes over temperatures); higher = more thermally stable than in G1/S
[5] = cell cycle stage: early G1 (4.5 h after nocodazole release)
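Wherever melting temperature (median over replicates), in situ is given: HeLa Kyoto cells synchronized by double thymidine or nocodazole block, proteins quantified by TMT10plex mass spectrometry, three independent biological replicates.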
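Wherever solubility change mitosis vs G1/S (difference of NP-40 vs SDS log2 ratios) is given: synchronized HeLa Kyoto cells (double thymidine block for G1/S, nocodazole release for mitosis), protein amounts in NP-40 versus SDS lysates quantified by mass spectrometry, three biological replicates.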
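Wherever solubility in G1/S (NP-40 vs SDS abundance) is given: HeLa Kyoto cells arrested at G1/S by double thymidine block, proteins quantified by TMT10plex mass spectrometry in mild NP-40 versus SDS extracts, three biological replicates.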
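Wherever thermal stability score vs G1/S (z-score of summed log2 fold changes over temperatures) is given: synchronized HeLa Kyoto cells, proteins quantified by TMT10plex mass spectrometry, three biological replicates, mitosis taken 0.5 h after nocodazole release, G1/S directly after double thymidine block.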

| Sequence | solubility in G1/S (log2) (HeLa Kyoto [1]) | melting temperature (HeLa Kyoto [2]; cell cycle stage: G1/S) [°C] | melting temperature (HeLa Kyoto [2]; cell cycle stage: mitosis) [°C] | solubility change mitosis (log2) (HeLa Kyoto [3]) | thermal stability score (HeLa Kyoto [4]; [5]) | thermal stability score (HeLa Kyoto [4]; cell cycle stage: mitosis) |
| --- | --- | --- | --- | --- | --- | --- |
| MSLLGDPLQALPPSAAPTGPLLAPPAGATLNRLREPLLRRLSELLDQAPEGRGWRRLAELAGSRGRLRLSCLDLEQCSLKVLEPEGSPSLCLLKLMGEKGCTVTELSDFLQAMEHTEVLQLLSPPGIKITVNPESKAVLAGQFVKLCCRATGHPFVQYQWFKMNKEIPNGNTSELIFNAVHVKDAGFYVCRVNNNFTFEFSQWSQLDVCDIPESFQRSVDGVSESKLQICVEPTSQKLMPGSTLVLQCVAVGSPIPHYQWFKNELPLTHETKKLYMVPYVDLEHQGTYWCHVYNDRDSQDSKKVEIIIGRTDEAVECTEDELNNLGHPDNKEQTTDQPLAKDKVALLIGNMNYREHPKLKAPLVDVYELTNLLRQLDFKVVSLLDLTEYEMRNAVDEFLLLLDKGVYGLLYYAGHGYENFGNSFMVPVDAPNPYRSENCLCVQNILKLMQEKETGLNVFLLDMCRKRNDYDDTIPILDALKVTANIVFGYATCQGAEAFEIQHSGLANGIFMKFLKDRLLEDKKITVLLDEVAEDMGKCHLTKGKQALEIRSSLSEKRALTDPIQGTEYSAESLVRNLQWAKAHELPESMCLKFDCGVQIQLGFAAEFSNVMIIYTSIVYKPPEIIMCDAYVTDFPLDLDIDPKDANKGTPEETGSYLVSKDLPKHCLYTRLSSLQKLKEHLVFTVCLSYQYSGLEDTVEDKQEVNVGKPLIAKLDMHRGLGRKTCFQTCLMSNGPYQSSAATSGGAGHYHSLQDPFHGVYHSHPGNPSNVTPADSCHCSRTPDAFISSFAHHASCHFSRSNVPVETTDEIPFSFSDRLRISEK [MALT1] | -0.00137 | 49 | 49.4 | -0.158 | 0.111 | 0.543 |
| MSLLLLLLLVSYYVGTLGTHTEIKRVAEEKVTLPCHHQLGLPEKDTLDIEWLLTDNEGNQKVVITYSSRHVYNNLTEEQKGRVAFASNFLAGDASLQIEPLKPSDEGRYTCKVKNSGRYVWSHVILKVLVRPSKPKCELEGELTEGSDLTLQCESSSGTEPIVYYWQRIREKEGEDERLPPKSRIDYNHPGRVLLQNLTMSYSGLYQCTAGNEAGKESCVVRVTVQYVQSIGMVAGAVTGIVAGALLIFLLVWLLIRRKDKERYEEEERPNEIREDAEAPKARLVKPSSSSSGSRSSRSGSSSTRSTANSASRSQRTLSTDAAPQPGLATQAYSLVGPEVRGSEPKKVHHANLTKAETTPSMIPSQSRAFQTV [CLMP] | 0.0444 | 55 | 55.4 | -0.0674 | -1.13 | -0.751 |
| MSLMVSAGRGLGAVWSPTHVQVTVLQARGLRAKGPGGTSDAYAVIQVGKEKYATSVSERSLGAPVWREEATFELPSLLSSGPAAAATLQLTVLHRALLGLDKFLGRAEVDLRDLHRDQGRRKTQWYKLKSKPGKKDKERGEIEVDIQFMRNNMTASMFDLSMKDKSRNPFGKLKDKIKGKNKDSGSDTASAIIPSTTPSVDSDDESVVKDKKKKSKIKTLLSKSNLQKTPLSQSMSVLPTSKPEKVLLRPGDFQSQWDEDDNEDESSSASDVMSHKRTASTDLKQLNQVNFTLPKKEGLSFLGGLRSKNDVLSRSNVCINGNHVYLEQPEAKGEIKDSSPSSSPSPKGFRKKHLFSSTENLAAGSWKEPAEGGGLSSDRQLSESSTKDSLKSMTLPSYRPAPLVSGDLRENMAPANSEATKEAKESKKPESRRSSLLSLMTGKKDVAKGSEGENPLTVPGREKEGMLMGVKPGEDASGPAEDLVRRSEKDTAAVVSRQGSSLNLFEDVQITEPEAEPESKSEPRPPISSPRAPQTRAVKPRLEVSPEAQPTARLPSPTDSPSSLPPLPSSSGQASVPSELGHGADTQSSESPSVFSSLSSPIAAPISTSTPIESWPLVDRGQAKSEGPPLLPKAELQTESLTPVPNSGSSALGSLFKQPSFPANKGTEDSLMGRTRETGTEKNTSSLELEESLPEQPETGRQEEELPRFPCKKQDYSPSSGEAQEVPFALSLSSDGAVSPVGELAAGGDRDLESQAGSLVESKARDAAEEVAPPLPMGASVPSIDSMMRKLEEMGLNLRKDQKKTKKRVSFSEQLFTEEAVAGAALLVEGHSSCPQELNPAWSVAGNASDGEPPESPHAEDSERESVTTPGPATCGAPASPADHLLLPSQEESFSEVPMSEASSAKDTPLFRMEGEDALVTQYQSKASDHEGLLSDPLSDLQLVSDFKSPIMADLNLSLPSIPEVASDDERIDQVEDDGDQVEDDGETAKSSTLDIGALSLGLVVPCPERGKGPSGEADRLVLGEGLCDFRLQAPQASVTAPSEQTTEFGIHKPHLGKSSSLDKQLPGPSGGEEEKPMGNGSPSPPPGTSLDNPVPSPSPSEIFPVTHSFPSSAHSDTHHTSTAESQKKATAEGSAGRVENFGKRKPLLQAWVSPSETHPVSAQPGAGTGSAKHRLHPVKPMNAMATKVANCSLGTATIISENLNNEVMMKKYSPSDPAFAYAQLTHDELIQLVLKQKETISKKEFQVRELEDYIDNLLVRVMEETPNILRIPTQVGKKAGKM [RAB11FIP1] | 0.306 | 51 | 50.1 | -0.196 | 0.112 | 0.383 |
| MSLQSAQYLRQAEVLKADMTDSKLGPAEVWTSRQALQDLYQKMLVTDLEYALDKKVEQDLWNHAFKNQITTLQGQAKNRANPNRSEVQANLSLFLEAASGFYTQLLQELCTVFNVDLPCRVKSSQLGIISNKQTHTSAIVKPQSSSCSYICQHCLVHLGDIARYRNQTSQAESYYRHAAQLVPSNGQPYNQLAILASSKGDHLTTIFYYCRSIAVKFPFPAASTNLQKALSKALESRDEVKTKWGVSDFIKAFIKFHGHVYLSKSLEKLSPLREKLEEQFKRLLFQKAFNSQQLVHVTVINLFQLHHLRDFSNETEQHTYSQDEQLCWTQLLALFMSFLGILCKCPLQNESQEESYNAYPLPAVKVSMDWLRLRPRVFQEAVVDERQYIWPWLISLLNSFHPHEEDLSSISATPLPEEFELQGFLALRPSFRNLDFSKGHQGITGDKEGQQRRIRQQRLISIGKWIADNQPRLIQCENEVGKLLFITEIPELILEDPSEAKENLILQETSVIESLAADGSPGLKSVLSTSRNLSNNCDTGEKPVVTFKENIKTREVNRDQGRSFPPKEVRRDYSKGITVTKNDGKKDNNKRKTETKKCTLEKLQETGKQNVAVQVKSQTELRKTPVSEARKTPVTQTPTQASNSQFIPIHHPGAFPPLPSRPGFPPPTYVIPPPVAFSMGSGYTFPAGVSVPGTFLQPTAHSPAGNQVQAGKQSHIPYSQQRPSGPGPMNQGPQQSQPPSQQPLTSLPAQPTAQSTSQLQVQALTQQQQSPTKAVPALGKSPPHHSGFQQYQQADASKQLWNPPQVQGPLGKIMPVKQPYYLQTQDPIKLFEPSLQPPVMQQQPLEKKMKPFPMEPYNHNPSEVKVPEFYWDSSYSMADNRSVMAQQANIDRRGKRSPGVFRPEQDPVPRMPFEKSLLEKPSELMSHSSSFLSLTGFSLNQERYPNNSMFNEVYGKNLTSSSKAELSPSMAPQETSLYSLFEGTPWSPSLPASSDHSTPASQSPHSSNPSSLPSSPPTHNHNSVPFSNFGPIGTPDNRDRRTADRWKTDKPAMGGFGIDYLSATSSSESSWHQASTPSGTWTGHGPSMEDSSAVLMESLKSIWSSSMMHPGPSALEQLLMQQKQKQQRGQGTMNPPH [SMG7] | 0.0703 | 50.4 | 49.3 | -0.127 | 0.868 | 1.4 |
